# Publication PMC7229842, “Molecular basis of the multifaceted functions of human leucyl-tRNA synthetase in protein synthesis and beyond” (Nucleic Acids Research, 2020)
# T1: Human cytosolic isoleucyl-tRNA synthetase (human, UniProt P41252 1-1262)
# T1 construct: human cytosolic isoleucyl-tRNA synthetase (IRS), gene cloned from the cDNA of HEK293 cells; also called IRS; source: recombinant from a modified pET28b, purified (Ni-NTA, gel filtration)
# T1 sequence (looked up): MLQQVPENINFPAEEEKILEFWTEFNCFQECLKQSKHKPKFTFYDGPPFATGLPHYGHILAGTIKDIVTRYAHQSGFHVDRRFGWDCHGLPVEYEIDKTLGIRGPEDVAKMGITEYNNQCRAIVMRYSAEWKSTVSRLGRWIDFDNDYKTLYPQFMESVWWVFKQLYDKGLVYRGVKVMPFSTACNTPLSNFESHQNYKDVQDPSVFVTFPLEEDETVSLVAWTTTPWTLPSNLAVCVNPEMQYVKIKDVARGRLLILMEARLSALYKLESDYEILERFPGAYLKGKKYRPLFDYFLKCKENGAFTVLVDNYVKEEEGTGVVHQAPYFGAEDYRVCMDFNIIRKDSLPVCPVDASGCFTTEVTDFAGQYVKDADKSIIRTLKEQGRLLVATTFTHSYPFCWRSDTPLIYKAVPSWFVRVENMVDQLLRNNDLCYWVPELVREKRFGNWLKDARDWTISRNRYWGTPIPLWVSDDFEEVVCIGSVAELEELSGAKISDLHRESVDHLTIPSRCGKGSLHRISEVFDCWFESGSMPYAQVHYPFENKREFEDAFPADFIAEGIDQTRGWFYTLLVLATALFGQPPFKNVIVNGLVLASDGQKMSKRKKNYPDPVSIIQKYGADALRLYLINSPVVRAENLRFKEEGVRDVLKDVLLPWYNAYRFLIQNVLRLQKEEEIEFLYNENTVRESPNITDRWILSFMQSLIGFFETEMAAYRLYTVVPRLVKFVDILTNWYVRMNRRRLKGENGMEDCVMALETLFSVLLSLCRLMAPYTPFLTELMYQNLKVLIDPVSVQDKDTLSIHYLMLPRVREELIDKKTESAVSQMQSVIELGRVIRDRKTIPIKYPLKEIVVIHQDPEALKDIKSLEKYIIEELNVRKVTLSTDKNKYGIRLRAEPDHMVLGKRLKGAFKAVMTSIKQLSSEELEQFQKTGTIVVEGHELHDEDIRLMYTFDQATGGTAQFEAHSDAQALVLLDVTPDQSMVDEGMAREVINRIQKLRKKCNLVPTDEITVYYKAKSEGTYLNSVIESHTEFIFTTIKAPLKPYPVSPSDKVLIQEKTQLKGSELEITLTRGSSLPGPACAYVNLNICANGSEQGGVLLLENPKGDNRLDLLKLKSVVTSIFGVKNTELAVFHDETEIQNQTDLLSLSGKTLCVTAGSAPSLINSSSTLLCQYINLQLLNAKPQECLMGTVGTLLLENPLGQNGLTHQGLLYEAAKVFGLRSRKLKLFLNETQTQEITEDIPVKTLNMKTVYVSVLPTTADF
# T2: MRS-AIMP3 complex (human cytosolic methionyl-tRNA synthetase co-expressed with AIMP3) (human, UniProt P56192 1-900; O43324 1-174)
# T2 construct: human cytosolic methionyl-tRNA synthetase (MRS), gene cloned from the cDNA of HEK293 cells; Only MRS carries the Flag tag; It is the bait of the anti-Flag pull-down of the assembled MSC; source: co-expressed from a modified pETDuet-1, purified (Ni-NTA, gel filtration); not shown: Flag, C-terminal, kept
# T2 sequence (looked up) 1: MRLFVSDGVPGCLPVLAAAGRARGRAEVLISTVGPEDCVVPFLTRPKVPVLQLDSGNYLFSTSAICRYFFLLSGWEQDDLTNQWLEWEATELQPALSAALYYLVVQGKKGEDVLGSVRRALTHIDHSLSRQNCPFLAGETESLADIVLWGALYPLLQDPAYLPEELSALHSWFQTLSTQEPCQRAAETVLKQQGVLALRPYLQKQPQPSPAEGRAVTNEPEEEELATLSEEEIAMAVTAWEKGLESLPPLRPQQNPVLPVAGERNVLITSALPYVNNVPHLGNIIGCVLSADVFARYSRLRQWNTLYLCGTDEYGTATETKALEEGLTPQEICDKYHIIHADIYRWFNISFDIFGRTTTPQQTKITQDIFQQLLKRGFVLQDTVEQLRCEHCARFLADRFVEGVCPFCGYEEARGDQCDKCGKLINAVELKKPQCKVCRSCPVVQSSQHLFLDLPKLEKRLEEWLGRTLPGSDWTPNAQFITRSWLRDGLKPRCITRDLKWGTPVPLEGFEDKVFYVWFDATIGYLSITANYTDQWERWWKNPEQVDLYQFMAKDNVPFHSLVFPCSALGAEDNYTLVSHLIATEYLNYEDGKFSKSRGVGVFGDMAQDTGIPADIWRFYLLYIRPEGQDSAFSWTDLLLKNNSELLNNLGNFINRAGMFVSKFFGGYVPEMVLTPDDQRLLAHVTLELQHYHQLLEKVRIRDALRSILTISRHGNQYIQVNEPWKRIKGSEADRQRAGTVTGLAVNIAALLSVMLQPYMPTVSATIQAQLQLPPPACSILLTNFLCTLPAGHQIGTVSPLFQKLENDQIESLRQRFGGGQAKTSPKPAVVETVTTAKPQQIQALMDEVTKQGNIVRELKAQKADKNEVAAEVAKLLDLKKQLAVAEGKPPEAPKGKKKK
# T2 sequence (looked up) 2: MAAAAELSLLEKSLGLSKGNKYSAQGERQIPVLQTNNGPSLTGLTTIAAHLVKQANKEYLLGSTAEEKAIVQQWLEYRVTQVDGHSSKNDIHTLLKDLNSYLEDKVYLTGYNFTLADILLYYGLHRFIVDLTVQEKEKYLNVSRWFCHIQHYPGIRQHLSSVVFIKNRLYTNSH
# Assays:
# [1] = molecular target: T1, Human cytosolic isoleucyl-tRNA …; assay: SEC; purified hcLRS (or hcLRS_d106) incubated with each partner separately for 4 h, then run on gel filtration; protein incubated with buffer as control; conditions: both partners purified
# [2] = molecular target: T2, MRS-AIMP3 complex (human cytosolic …); assay: pull-down; in vitro assembly of the MSC as in a2 but lacking IRS; anti-Flag beads on MRS-Flag; conditions: both partners purified
Binder,binding result [1],binding result [2]
"Human cytosolic leucyl-tRNA synthetase, full length (enzyme, human cytosolic leucyl-tRNA synthetase, UniProt Q9P2J5, 1176 residues; also called hcLRS; FL-hcLRS; source: recombinant from pET16b-hcLRS, purified (Ni-NTA, gel filtration)) not shown",binds,–
"Human cytosolic glutaminyl-tRNA synthetase (enzyme, UniProt P47897 1-775, looked up, human cytosolic QRS, gene cloned from the cDNA of HEK293 cells; also called QRS; source: recombinant from a modified pET28b, purified (Ni-NTA, gel filtration)) MAALDSLSLFTSLGLSEQKARETLKNSALSAQLREAATQAQQTLGSTIDKATGILLYGLASRLRDTRRLSFLVSYIASKKIHTEPQLSAALEYVRSHPLDPIDTVDFERECGVGVIVTPEQIEEAVEAAINRHRPQLLVERYHFNMGLLMGEARAVLKWADGKMIKNEVDMQVLHLLGPKLEADLEKKFKVAKARLEETDRRTAKDVVENGETADQTLSLMEQLRGEALKFHKPGENYKTPGYVVTPHTMNLLKQHLEITGGQVRTRFPPEPNGILHIGHAKAINFNFGYAKANNGICFLRFDDTNPEKEEAKFFTAICDMVAWLGYTPYKVTYASDYFDQLYAWAVELIRRGLAYVCHQRGEELKGHNTLPSPWRDRPMEESLLLFEAMRKGKFSEGEATLRMKLVMEDGKMDPVAYRVKYTPHHRTGDKWCIYPTYDYTHCLCDSIEHITHSLCTKEFQARRSSYFWLCNALDVYCPVQWEYGRLNLHYAVVSKRKILQLVATGAVRDWDDPRLFTLTALRRRGFPPEAINNFCARVGVTVAQTTMEPHLLEACVRDVLNDTAPRAMAVLESLRVIITNFPAAKSLDIQVPNFPADETKGFHQVPFAPIVFIERTDFKEEPEPGFKRLAWGQPVGLRHTGYVIELQHVVKGPSGCVESLEVTCRRADAGEKPKAFIHWVSQPLMCEVRLYERLFQHKNPEDPTEVPGGFLSDLNLASLHVVDAALVDCSVALAKPFDKFQFERLGYFSVDPDSHQGKLVFNRTVTLKEDPGKV",–,binds
"Human cytosolic aspartyl-tRNA synthetase (enzyme, UniProt P14868 1-501, looked up, human cytosolic DRS, gene cloned from the cDNA of HEK293 cells; also called DRS; source: recombinant from a modified pET28b, purified (Ni-NTA, gel filtration)) MPSASASRKSQEKPREIMDAAEDYAKERYGISSMIQSQEKPDRVLVRVRDLTIQKADEVVWVRARVHTSRAKGKQCFLVLRQQQFNVQALVAVGDHASKQMVKFAANINKESIVDVEGVVRKVNQKIGSCTQQDVELHVQKIYVISLAEPRLPLQLDDAVRPEAEGEEEGRATVNQDTRLDNRVIDLRTSTSQAVFRLQSGICHLFRETLINKGFVEIQTPKIISAASEGGANVFTVSYFKNNAYLAQSPQLYKQMCICADFEKVFSIGPVFRAEDSNTHRHLTEFVGLDIEMAFNYHYHEVMEEIADTMVQIFKGLQERFQTEIQTVNKQFPCEPFKFLEPTLRLEYCEALAMLREAGVEMGDEDDLSTPNEKLLGHLVKEKYDTDFYILDKYPLAVRPFYTMPDPRNPKQSNSYDMFMRGEEILSGAQRIHDPQLLTERALHHGIDLEKIKAYIDSFRFGAPPHAGGGIGLERVTMLFLGLHNVRQTSMFPRDPKRLTP",–,binds

# The remaining lines, values ahead:
binding result [1],binding result [2],Binder
–,binds,"Human cytosolic arginyl-tRNA synthetase (enzyme, UniProt P54136 1-660, looked up, human cytosolic RRS, gene cloned from the cDNA of HEK293 cells; also called RRS; source: recombinant from a modified pET28b, purified (Ni-NTA, gel filtration)) MDVLVSECSARLLQQEEEIKSLTAEIDRLKNCGCLGASPNLEQLQEENLKLKYRLNILRKSLQAERNKPTKNMINIISRLQEVFGHAIKAAYPDLENPPLLVTPSQQAKFGDYQCNSAMGISQMLKTKEQKVNPREIAENITKHLPDNECIEKVEIAGPGFINVHLRKDFVSEQLTSLLVNGVQLPALGENKKVIVDFSSPNIAKEMHVGHLRSTIIGESISRLFEFAGYDVLRLNHVGDWGTQFGMLIAHLQDKFPDYLTVSPPIGDLQVFYKESKKRFDTEEEFKKRAYQCVVLLQGKNPDITKAWKLICDVSRQELNKIYDALDVSLIERGESFYQDRMNDIVKEFEDRGFVQVDDGRKIVFVPGCSIPLTIVKSDGGYTYDTSDLAAIKQRLFEEKADMIIYVVDNGQSVHFQTIFAAAQMIGWYDPKVTRVFHAGFGVVLGEDKKKFKTRSGETVRLMDLLGEGLKRSMDKLKEKERDKVLTAEELNAAQTSVAYGCIKYADLSHNRLNDYIFSFDKMLDDRGNTAAYLLYAFTRIRSIARLANIDEEMLQKAARETKILLDHEKEWKLGRCILRFPEILQKILDDLFLHTLCDYIYELATAFTEFYDSCYCVEKDRQTGKILKVNMWRMLLCEAVAAVMAKGFDILGIKPVQRM"
–,binds,"AaRS-interacting multi-functional protein 1 (natural protein, human, UniProt Q12904 1-312, looked up, human AIMP1, gene cloned from the cDNA of HEK293 cells; also called AIMP1; source: recombinant from a modified pET28b, purified (Ni-NTA, gel filtration)) MANNDAVLKRLEQKGAEADQIIEYLKQQVSLLKEKAILQATLREEKKLRVENAKLKKEIEELKQELIQAEIQNGVKQIPFPSGTPLHANSMVSENVIQSTAVTTVSSGTKEQIKGGTGDEKKAKEKIEKKGEKKEKKQQSIAGSADSKPIDVSRLDLRIGCIITARKHPDADSLYVEEVDVGEIAPRTVVSGLVNHVPLEQMQNRMVILLCNLKPAKMRGVLSQAMVMCASSPEKIEILAPPNGSVPGDRITFDAFPGEPDKELNPKKKIWEQIQPDLHTNDECVATYKGVPFEVKGKGVCRAQTMSNSGIK"
